Paper PMC3332085
Where two headings read alike, the source gives them in different places.

Key:
Experiment in all cases: SAXS
[1] = target: wild type yeast frataxin (Yfh1wt; residues 52-174) (S. cerevisiae) (UniProt Q07540)
[2] = target: wild type yeast frataxin (Yfh1wt; residues 52-174) (S. cerevisiae) (UniProt Q07540); remark: listed apart in the source
[3] = target: wild type yeast frataxin (Yfh1wt; residues 52-174) (S. cerevisiae) (UniProt Q07540); remark: listed apart in the source

wild type yeast frataxin (Yfh1wt; residues 52-174) (from UniProt Q07540 52-174) (natural protein)
distribution, hexamer [1]: 9%
distribution, monomer [1]: 67%
distribution, trimer [1]: 24%
stoichiometry N [1]: 2
distribution, hexamer [2]: 13%
distribution, monomer [2]: 54%
distribution, trimer [2]: 33%
distribution, 42-mer [3]: 11%
distribution, hexamer [3]: 6%
distribution, monomer [3]: 26%
distribution, trimer [3]: 57%
